The target in the test is TIGIT on PHA-activated human peripheral blood mononuclear cells (PBMC) (human) (UniProt Q495A1). As to the kind of experiment: cell-based or functional assay.

The source of these data is US20240417462A1.

TIGIT on PHA-activated human peripheral blood mononuclear cells (PBMC) (human), sequence (Q495A1 22-244): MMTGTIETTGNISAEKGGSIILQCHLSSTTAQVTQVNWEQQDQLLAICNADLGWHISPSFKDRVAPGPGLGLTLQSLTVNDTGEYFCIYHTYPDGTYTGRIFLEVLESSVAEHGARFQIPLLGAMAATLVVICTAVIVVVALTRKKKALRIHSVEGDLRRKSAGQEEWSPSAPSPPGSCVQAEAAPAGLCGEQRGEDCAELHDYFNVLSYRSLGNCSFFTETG

As for Tiragolumab (antibody), the IFNγ release, increase over no antibody worked out at 16%.
